Measured values as given in the supplement of paper PMC10567573.

B1: PLAGL1 (parent)
chain: LELGSTEVLLDHLKAHAEEKPPSG
B2: LOXL2 (parent)
chain: HISSCKLGPQVSLDPMKNVTCENG

Variants of: B1
Experiment: protein stability index of a GFP-peptide fusion (GPS, HEK-293T) (PSI 1-6); higher = more stable
Conditions: c terminus: a fixed tail appended
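Also: lentivirally expressed fusions sorted by FACS into six bins by GFP to DsRed ratio, PSI derived from sequencing read proportions per bin multiplied by bin number.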

Variant	protein stability index
LELGSTEVLLDHLKAHAEEKPPSS [G24S]	4.46
LELGSTEVLLDHLKAHAEEKPPSV [G24V]	3.88
LELGSTEVLLDHLKAHAEEKPPSW [G24W]	3.23
LELGSTEVLLDHLKAHAEEKPPST [G24T]	4.18
LELGSTEVLLDHLKAHAEEKPPSR [G24R]	4.21
LELGSTEVLLDHLKAHAEEKPPSY [G24Y]	3.7

Variants of: B2
Experiment: as above
Conditions: c terminus: a fixed tail appended

Variant	protein stability index
HISSSKLGPQVSLDPMKNVTCENG [C5S]	4.66
HISSYKLGPQVSLDPMKNVTCENG [C5Y]	4
HISSMKLGPQVSLDPMKNVTCENG [C5M]	4.2
HISSGKLGPQVSLDPMKNVTCENG [C5G]	4.17
HISSHKLGPQVSLDPMKNVTCENG [C5H]	4.37
HISECKLGPQVSLDPMKNVTCENG [S4E]	4.37
HISVCKLGPQVSLDPMKNVTCENG [S4V]	3.91
HISICKLGPQVSLDPMKNVTCENG [S4I]	3.02
HISLCKLGPQVSLDPMKNVTCENG [S4L]	3.6
HISPCKLGPQVSLDPMKNVTCENG [S4P]	4.22
HISKCKLGPQVSLDPMKNVTCENG [S4K]	3.96
HISSCKMGPQVSLDPMKNVTCENG [L7M]	4.31
HISSCKEGPQVSLDPMKNVTCENG [L7E]	4.79
HISSCKTGPQVSLDPMKNVTCENG [L7T]	4.54
HISSCKGGPQVSLDPMKNVTCENG [L7G]	4.76
HISSCKLGPQVSLDPMKNVTIENG [C21I]	3.53
HISSCKLGPQVSLDPMKNVTTENG [C21T]	4.08
HISSCKLGPQVSLDPMKNVTGENG [C21G]	4.05
HISSCKLGPQVSLDPMKNVTEENG [C21E]	4.92
HISSCKLGPQVSLDPMKNVTNENG [C21N]	4.14
HISSCKLGPQVSLDPMKNVTPENG [C21P]	4.17
HISSCKLGPQVSLDPMKNVTMENG [C21M]	3.61

Variant	protein stability index
HISSCKLGPQVSLDPMKNVTWENG [C21W]	3.75
HISSCKLGPQVSLDPMKNVTYENG [C21Y]	3.36
HISSCKLGPFVSLDPMKNVTCENG [Q10F]	3.07
HISSCKLGPTVSLDPMKNVTCENG [Q10T]	3.36
HISSCKLGPCVSLDPMKNVTCENG [Q10C]	3.19
HISSCKLGPSVSLDPMKNVTCENG [Q10S]	4.33
HISSCKLGPLVSLDPMKNVTCENG [Q10L]	3.32
HISSCKLGPPVSLDPMKNVTCENG [Q10P]	3.68
HISSCKLGPQVSLDPEKNVTCENG [M16E]	5.1
HISSCKLGPQVSLDPAKNVTCENG [M16A]	4.15
HISSCKLGPQVSLDPPKNVTCENG [M16P]	4.16
HISSCKLGPQVSLDPYKNVTCENG [M16Y]	3.86
HISSCKLGPQVSLDPTKNVTCENG [M16T]	4.04
HISSCKLGPQVSLDPWKNVTCENG [M16W]	2.86
HISSCKLGPQVSLDPCKNVTCENG [M16C]	3.94
YISSCKLGPQVSLDPMKNVTCENG [H1Y]	2.46
MISSCKLGPQVSLDPMKNVTCENG [H1M]	3.95
VISSCKLGPQVSLDPMKNVTCENG [H1V]	3.72
TISSCKLGPQVSLDPMKNVTCENG [H1T]	4.07
SISSCKLGPQVSLDPMKNVTCENG [H1S]	4.14
RISSCKLGPQVSLDPMKNVTCENG [H1R]	3.95
AISSCKLGPQVSLDPMKNVTCENG [H1A]	3.87

Variant	protein stability index
WISSCKLGPQVSLDPMKNVTCENG [H1W]	3.42
HISSCKLGPQVSLDWMKNVTCENG [P15W]	3.08
HISSCKLGPQVSLDIMKNVTCENG [P15I]	3.41
HISSCKLGPQVSLDFMKNVTCENG [P15F]	3.04
HISSCKLGPQVSLDSMKNVTCENG [P15S]	3.94
HISSCKLGPQVSLDAMKNVTCENG [P15A]	3.86
HISSCKLGPQVSLDDMKNVTCENG [P15D]	4.19
HISSCKLGPQVSLPPMKNVTCENG [D14P]	3.78
HISSCKLGPQVSLYPMKNVTCENG [D14Y]	2.8
HISSCKLGPQVSLFPMKNVTCENG [D14F]	2.46
HISSCKLGPQVSLKPMKNVTCENG [D14K]	3.5
HISSCKLGPQVSLWPMKNVTCENG [D14W]	2.14
HISSCKLGPQVSLVPMKNVTCENG [D14V]	3.69
HISSCKLGPQVSLRPMKNVTCENG [D14R]	3.33
HISSCKLGPQVSLQPMKNVTCENG [D14Q]	3.58
HISSCKLGPQVSLLPMKNVTCENG [D14L]	3.22
HISSCKLGPQVSLMPMKNVTCENG [D14M]	3.22
HSSSCKLGPQVSLDPMKNVTCENG [I2S]	4.34
HRSSCKLGPQVSLDPMKNVTCENG [I2R]	4.11
HTSSCKLGPQVSLDPMKNVTCENG [I2T]	4.54
HPSSCKLGPQVSLDPMKNVTCENG [I2P]	3.76
HNSSCKLGPQVSLDPMKNVTCENG [I2N]	3.76

Variant	protein stability index
HMSSCKLGPQVSLDPMKNVTCENG [I2M]	4.41
HQSSCKLGPQVSLDPMKNVTCENG [I2Q]	4.25
HESSCKLGPQVSLDPMKNVTCENG [I2E]	4.48
HASSCKLGPQVSLDPMKNVTCENG [I2A]	4.35
HCSSCKLGPQVSLDPMKNVTCENG [I2C]	3.44
HISSCKLGPQVSLDPMKNETCENG [V19E]	4.44
HISSCKLGPQVSLDPMKNQTCENG [V19Q]	4.08
HISSCKLGPQVSLDPMKNLTCENG [V19L]	3.77
HISSCKLGPQVSLDPMKNCTCENG [V19C]	3.86
HISSCKLGPQVSLDPMKNFTCENG [V19F]	2.95
HISSCKLGPQVSLDPMKNYTCENG [V19Y]	3.76
HISSCKLGPQVSLDPMKNDTCENG [V19D]	4.67
HISSCKLGPQVRLDPMKNVTCENG [S12R]	3.48
HISSCKLGPQVWLDPMKNVTCENG [S12W]	2.47
HISSCKLGPQVHLDPMKNVTCENG [S12H]	4
HISSCKLGPQVELDPMKNVTCENG [S12E]	4.48
HISSCKLGPQVILDPMKNVTCENG [S12I]	3.68
HISSCKLGPQVGLDPMKNVTCENG [S12G]	3.93
HISSCKLGPQVYLDPMKNVTCENG [S12Y]	3.24
HISSCKLGPQVLLDPMKNVTCENG [S12L]	3.31
HISSCKLGPQVFLDPMKNVTCENG [S12F]	3.27
HISSCKLGPQVSLDPMLNVTCENG [K17L]	3.77
